Test results published in patent US11045520B2, “Compositions and methods for topical delivery of pharmaceutical agents” (priority 2016, dated 2021).

How the values were obtained:
human skin explants [1] = settings: cited from earlier work
[2] = tested on: human skin explants or xenograted human skin; assay: Confocal imaging of fluorescent dye distribution in ETA-desquamated skin (Example 2); settings: for skin permeability after removal of S.C. by ETA: ETA 100 μg/mL treated vs untreated skin
Method: Human skin samples were fixed in 10% formaldehyde overnight and then embedded in paraffin. Samples were cut using a microtome to a thickness of 6 μM and baked on slides for 1 hour in a dry heat incubator at 58° C. Nuclei and eosinophillic structures were visualized by hematoxylin and eosin staining, respectively. The hematoxylin stains nuclei blue and eosins stains eosinophillic structures different shades of red. Histological images were taken with an inverted microscope.
The skin was either subjected to no treatment or application of ETA at 100 μg/mL.
To image the distribution of each dye in the human skin, human skin specimens were collected at 6, 12, 18 and 24 hours. Ordinary skin with intact S.C. and desquamated skin using ETA (methods previously described) were used. Frozen sections of human skin specimens were cut using a microtome to a thickness of 7 μM and DAPI was used for counter staining. Skin imaging was carried out at room temperature using Nikon confocal microscope equipped with NIS-Elements AR 3.10 software.

human skin = assay: Franz cell diffusion apparatus assay, ETA-treated vs control skin (Example 3); assay type: in vitro ADME; settings: ETA-treated human skin compared to non-treated control, 24 hours
Method: Permeation experiments with Franz diffusion cells were performed using human skin. The Franz diffusion cells were made of glass with a contact area of 1.35 cm^2, consisting of a donor compartment and a receptor compartment. The skin was mounted between the cell compartments and 2 O-ring shaped glasses were used to position the skin epidermis side-up and dermis side-down. The two cell compartments were held together with a clamp. […] It was kept at 37° C. on a heated plate. After 30 minutes of equilibration of the skin with the receptor solution, 200 μl of the drug solution was applied in the donor compartment with a pipet. The donor compartment was then covered with parafilm to prevent evaporation of the solvent. The receptor solution was continuously stirred using a spinning bar magnet at 200 rpm. Receptor solution samples, 0.2 ml aliquots, were withdrawn through the sampling port of the receptor compartment at various time intervals. The cells were refilled with a same amount of receptor solution to keep the volume of receptor solution constant during the experiment. The experiments were run for 24 hours. The fluorescent intensities collected from receptor compartments from normal and desquamated skin were compared over time using a spectrophotometer. […]

[3] = tested on: skin epidermis and dermis; assay: Removal of S.C. by various methods and possible damage (FIG. 12)
Description: FIGS. 12A (panel a-d) and 12B depict removal of S.C. by various methods and possible damage. […] Even more damage to the dermis and epidermis are seen in skin treated by dermabrasion (panel d). In FIG. 12A, single headed arrow points to the epidermis and double headed arrows show clefting between epidermis and dermis.
Fractional laser treatment lead to unavoidable heat damage on the side of the holds that each radiated beam made.

[4] = tested on: Stratum Corneum of human skin explants; assay: ETA desquamation of Stratum Corneum on human skin explants, H&E histology (Example 1)
Method: ETA was mixed with 10 mM PIPES at pH 6.5, 10 mM HEPES at pH 7.4, or 10 mM Tris at pH 8.0, at concentrations ranging from 25-1000 μg/mL. Each condition was also done separately as controls. These solutions were applied to human skin explants, obtained and prepared as follows. Human skin specimens were obtained from consenting patients undergoing abdominoplasty. Under a sterile condition, the tissue was placed and washed in a 70% ethanol solution and cold PBS. Fat layers were removed from the tissue, leaving a millimeter of dermis and an intact epidermis. The tissue was then cut into 10 mm×10 mm pieces and placed on gels composed of keratinocyte media supplemented with Human Keratinocyte Growth Supplement purchased from Invitrogen, and mixed in a 1:1 ratio with 2% agarose. The samples were stored at 37° C. in 5% CO2.
ETA solutions were incubated on top of the skin for 4 hours. Each buffer condition was also done separately without the presence of ETA as controls. […] That is to say, Stratum Corneum layer was peeled off mechanically with sterile gauze.
Histological images were taken with an inverted microscope.

[5] = tested on: Stratum Corneum, human skin explant model; assay: ETA desquamation after acetone and/or thioglycolate cream pre-treatment (Example 4)
Description: FIG. 7 panels a-d depict decreased desquamation time for the removal of S.C. by ETA on the human skin specimen(s) following thioglycolate cream pre-treatment. Samples either received no treatment (panel a), ETA only (panel b), treated with thioglycolate cream only (panel c), ETA and thioglycolate cream (panel d). The depictions are of live confocal imaging of skin. Images are focusing on the horizontal plane at the most superficial levels. Lighter areas depict areas where DAPI dye has entered the epidermis and staining on the Nuclei of the cells. […] Natural folds in skin surface produce “waves” of staining in these planar-focused live images. The waves of staining are seen in panel b, with about 20%-30% of the area stained, and about 90%-95% of the area stained in panel d (“unstained” regions in panel d are skin folds). However when S.C. is present (panels a and c), DAPI cannot penetrate cells, and is shielded from cellular uptake by the S.C., staining is seen to be less than about 10% in panels a and c.
In order to decrease the incubation time of ETA, the following conditions were additionally evaluated:
Studies were carried out in a human skin explant model using surgical abdominal skin specimens.
Lipid Extraction: The S.C. layer consists of lipids and therefore, acetone was selected as a pre-treatment to dissolve or at least disrupt the lipid structure of the S.C.
Protein Denaturation: The S.C. layer also contains keratin proteins. Keratins can be broken down by thioglycolate, which breaks down rigid disulfide bonds. Samples were pre-treated with thioglycolate cream to break down the keratin layer of the S.C. As a result, the incubation time of ETA was shortened (FIG. 7).
Combination Lipid Extraction and Protein Denaturation: With the pre-treatment of acetone and a thioglycolate cream, separation of S.C. started as early as 2 to 2.5 hours.

human skin explants [6] = assay: Injected versus topically applied ETA, damage after 24 hours (Example 6)
Method: FIG. 10 panels a-h depict the effect of injected and topically applied ETA in a series of concentrations between 5 and 1000 ug/mL after 24 hours.
Damage caused by intra-dermal injection of ETA was compared to normal control skin and topically applied ETA control. A very high concentration of ETA (500 μg/mL) was intra-dermally injected into human skin explants (prepared as described in Example 1) and observed after 24 hours. […] In contrast, methods of the invention topically apply ETA only to the outside surface of skin.

[7] = tested on: xenograft human skin in SCID mice; assay: Recovery of S.C. after ETA, serial confocal DAPI staining; assay type: in vivo
Description: FIG. 11 panels a-i depict DAPI staining on nuclei in an S.C. removed area compared to control (intact S.C.), highlighting the recovery of the S.C. layer over time after the application of ETA on human xenografted skin on mice. […] Day 7-9 and 10-11 (panels e, f) show even less nuclei.
Regarding healing kinetics, using a xenograft human skin in SCID mice model, the healing of removed S.C. was completed within 2 weeks as determined by serial confocal observation of DAPI staining on xenograft skin. With confocal microscope and DAPI staining, the recovery of the S.C. can be observed, as described. DAPI is known to be a fluorescent stain that can pass through the cell membrane and bind strongly to A-T rich regions in DNA, thereby staining the nuclei of cells. With intact S.C., the signal from DAPI cannot be detected by confocal microscope due to the refraction of light against the S.C. as well as the limitation of the depth of light penetration. On the other hand, desquamated skin can produce DAPI signals within cells. DAPI can stain the nuclei of epidermis as long as epidermis remains desquamated. Under inhalation anesthesia, xenografted mouse was taped down on the observatory plates and the xenografted skin was imaged using confocal microscopy. DAPI signal was obtained at baseline and every other day after ETA-mediated desquamation occurred.

[8] = intra-dermally injected, ETA 500 μg/mL, 24 hours

Molecule: C=C[C@@]1(C)CC(=O)[C@]2(O)[C@@]3(C)[C@@H](O)CCC(C)(C)[C@@H]3[C@H](O)[C@H](OC(C)=O)[C@@]2(C)O1 [Forskolin]
- penetration of intact human skin (human skin explants [1]): cannot, however, penetrate intact human skin

Molecule: human recombinant insulin: FITC tagged human recombinant insulin (5000 Da)
- skin permeability after removal of S.C. by ETA [2]: substantially increased
- time to penetration of the dye ([2]; toxin treated skin): ≤ 6 h
- penetration of the dye at 12 hours ([2]; toxin treated skin): some dye penetration
- penetration of the dye at 24 hours ([2]; toxin treated skin): extensively into the dermis
- penetration of the dye at 24 hours ([2]; toxin treated skin, listed as FITC-insulin): deep penetration of the dye

Molecule: O=C1OC2(c3ccc(O)cc3Oc3cc(O)ccc32)c2ccccc21 [fluorescein]
- skin permeability, fluorescence in receptor compartment (human skin): increase in skin permeability

Molecule: CCNc1cc2[s+]c3cc(N(CC)CC)ccc3nc2c2ccccc12.[Cl-] [EtNBS]
- skin permeability after removal of S.C. by ETA [2]: substantially increased
- penetration of the dye at 12 hours ([2]; toxin treated skin): penetrating past the epidermis
- penetration of the dye at 24 hours ([2]; toxin treated skin): penetrated further

Molecule: O=C(O)c1ccccc1O [salicylic acid]
- injury by chemical peeling [3]: uncontrolled or unavoidable additional injury to epidermis
- epidermal or dermal injury ([3]; topical 30%): damage to the epidermis

Molecule: CCN(CC)c1ccc2c(-c3ccc(S(=O)(=O)O)cc3S(=O)(=O)[O-])c3ccc(=[N+](CC)CC)cc-3oc2c1 [Sulforhodamine, sulforhodamine B]
- skin permeability, fluorescence in receptor compartment (human skin): increase in skin permeability

Molecule: O=C(O)CO [glycololic acid, glycolic acid]
- epidermal or dermal injury ([3]; 20% for 1-3 minutes): epidermal damage and clefting of the dermal-epidermal junction (DEJ)
- injury by chemical peeling [3]: uncontrolled or unavoidable additional injury to epidermis

B1: ETA: protease that cleaves the extracellular portion of desmoglein-1 (Dsg1); Staphylococcus aureus, SEQ ID NO: 01/02 (protein, listed as Staphylococcus aureus)
chain: MNNSKIISKVLLSLSLFTVGASAFVIQDELMQKNHAKAEVSAEEIKKHEEKWNKYYGVNAFNLPKELFSKVDEKDRQKYPYNTIGNVFVKGQTSATGVLIGKNTVLTNRHIAKFANGDPSKVSFRPSINTDDNGNTETPYGEYEVKEILQEPFGAGVDLALIRLKPDQNGVSLGDKISPAKIGTSNDLKDGDKLELIGYPFDHKVNQMHRSEIELTTLSRGLRYYGFTSVPGNSGSGIFNSNGELVGIHSSKVSHLDREHQINYGVGIGNY
- effect of buffer on desquamation speed ([4]; 10 mM Tris buffer pH 8.0): no effect
- time to remove the S.C. ([4]; ETA 50 μg/mL): ≤ 12 h
- S.C. removal, histology (FIG. 1 panel d) ([4]; ETA 50 μg/mL, serial time points up to 12 hours): sub-corneal cleavage and the complete removal of the S.C.
- incubation time at which efficacy was achieved ([4]; ETA 1000 μg/mL, buffered pH 6.5 solution): about 3 hours
- time to desquamation of the Stratum Corneum ([4]; ETA between 5 and 25 μg/mL, topical): ≤ 24 h
- damage to the rest of the epidermis or the dermis ([4]; ETA between 5 and 25 μg/mL, within 24 hours): without damaging the rest of the epidermis or the dermis
- time to completely remove the S.C. ([4]; pH 6.5): 4 h
- desquamation (FIG. 2 panel d) ([4]; pH 6.5 PIPES buffer, 4 hours): total desquamation
- desquamation (FIG. 2 panel b) ([4]; pH 7.4 HEPES buffer, 4 hours): some desquamation
- incubation usually expected ([5]; ETA 50 μg/mL, without pre-treatment): 4 to 8 h
- area stained by DAPI (FIG. 7 panel d) ([5]; ETA and thioglycolate cream): 90%-95%
- area stained by DAPI (FIG. 7 panel b) ([5]; ETA only): 20%-30%
- change of reaction time after ETA application ([5]; acetone pre-treatment): slight decrease in reaction time
- time at which separation of S.C. started ([5]; pre-treatment of acetone and a thioglycolate cream): 2 to 2.5 h
- time of almost complete removal of S.C. ([5]; pre-treatment of acetone and a thioglycolate cream, ETA 50 μg/mL): 3 h
- change of incubation time of ETA ([5]; thioglycolate cream pre-treatment): shortened
- damage to the epidermis or underlying dermis (human skin explants [6]; [8]): no serious damage
- exfoliation (human skin explants [6]; [8]): more wide spread exfoliation
- histological effect (human skin explants [6]; intradermal injection, ETA 5 μg/mL, 24 hours): desquamation
- histological effect (human skin explants [6]; intradermal injection, ETA 50 μg/mL, 24 hours): desquamation
- histological effect (human skin explants [6]; intradermal injection, ETA 500 μg/mL, 24 hours): clefting at the dermal-epidermal junction (DEJ)
- histological effect (human skin explants [6]; intradermal injection, ETA 1000 μg/mL, 24 hours): clefting at the dermal-epidermal junction (DEJ)
- effect compared with intra-dermal injection (human skin explants [6]; topical ETA 50 μg/mL for 24 hours): much more modest effect
- histological effect (human skin explants [6]; topical application, ETA 5 μg/mL, 24 hours): no change
- histological effect (human skin explants [6]; topical application, ETA 50 μg/mL, 24 hours): desquamation
- histological effect (human skin explants [6]; topical application, ETA 500 μg/mL, 24 hours): desquamation
- histological effect (human skin explants [6]; topical application, ETA 1000 μg/mL, 24 hours): desquamation
- DAPI staining of nuclei ([7]; Day 12 after ETA): no nuclei
- DAPI staining of nuclei ([7]; Days 1-3 after ETA): significant DAPI staining
- time to completed healing of removed S.C. ([7]; after ETA-mediated desquamation): ≤ 2 weeks
- re-formation of intact Stratum Corneum complete ([7]; after application of ETA): ≤ 15 days
- epidermal or dermal injury ([3]; controlled removal of S.C. using ETA): no epidermal or dermal injury
